This note sets out measurements from IntAct's records for PubMed 23873930.

B1: Transcriptional coactivator YAP1 (Homo sapiens), P46937-3 (parent)
chain: MDPGQQPPPQPAPQGQGQPPSQPPQGQGPPSGPGQPAPAATQAAPQAPPAGHQIVHVRGDSETDLEALFNAVMNPKTANVPQTVPMRLRKLPDSFFKPPEPKSHSRQASTDAGTAGALTPQHVRAHSSPASLQLGAVSPGTLTPTGVVSGPAATPTAQHLRQSSFEIPDDVPLPAGWEMAKTSSGQRYFLNHIDQTTTWQDPRKAMLSQMNVTAPTSPPVQQNMMNSASAMNQRISQSAPVKQPPPLAPQSPQGGVMGGSNSNQQQQMRLQQLQMEKERLRLKQQELLRQVRPQELALRSQLPTLEQDGGTQNPVSSPGMSQELRTMTTNSSDPFLNSGTYHSRDESTDSGLSMSSYSVPRTPDDFLNSVDEMDTGDTINQSTLPSQQNRFPDYLEAIPGTNVDLGTLEGDGMNIEGEELMPSLQEALSSDILNDMESVLAATKLDKESFLTWL
partner: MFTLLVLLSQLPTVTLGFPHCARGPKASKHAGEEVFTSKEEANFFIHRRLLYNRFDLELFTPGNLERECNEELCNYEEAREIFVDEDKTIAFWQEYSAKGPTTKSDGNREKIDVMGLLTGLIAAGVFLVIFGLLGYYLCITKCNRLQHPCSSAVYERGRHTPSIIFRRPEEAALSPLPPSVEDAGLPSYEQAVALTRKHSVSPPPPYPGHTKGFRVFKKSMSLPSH
B2: Transmembrane gamma-carboxyglutamic acid protein 4 (Homo sapiens), Q9BZD6 (parent)
chain: B1 partner
partner: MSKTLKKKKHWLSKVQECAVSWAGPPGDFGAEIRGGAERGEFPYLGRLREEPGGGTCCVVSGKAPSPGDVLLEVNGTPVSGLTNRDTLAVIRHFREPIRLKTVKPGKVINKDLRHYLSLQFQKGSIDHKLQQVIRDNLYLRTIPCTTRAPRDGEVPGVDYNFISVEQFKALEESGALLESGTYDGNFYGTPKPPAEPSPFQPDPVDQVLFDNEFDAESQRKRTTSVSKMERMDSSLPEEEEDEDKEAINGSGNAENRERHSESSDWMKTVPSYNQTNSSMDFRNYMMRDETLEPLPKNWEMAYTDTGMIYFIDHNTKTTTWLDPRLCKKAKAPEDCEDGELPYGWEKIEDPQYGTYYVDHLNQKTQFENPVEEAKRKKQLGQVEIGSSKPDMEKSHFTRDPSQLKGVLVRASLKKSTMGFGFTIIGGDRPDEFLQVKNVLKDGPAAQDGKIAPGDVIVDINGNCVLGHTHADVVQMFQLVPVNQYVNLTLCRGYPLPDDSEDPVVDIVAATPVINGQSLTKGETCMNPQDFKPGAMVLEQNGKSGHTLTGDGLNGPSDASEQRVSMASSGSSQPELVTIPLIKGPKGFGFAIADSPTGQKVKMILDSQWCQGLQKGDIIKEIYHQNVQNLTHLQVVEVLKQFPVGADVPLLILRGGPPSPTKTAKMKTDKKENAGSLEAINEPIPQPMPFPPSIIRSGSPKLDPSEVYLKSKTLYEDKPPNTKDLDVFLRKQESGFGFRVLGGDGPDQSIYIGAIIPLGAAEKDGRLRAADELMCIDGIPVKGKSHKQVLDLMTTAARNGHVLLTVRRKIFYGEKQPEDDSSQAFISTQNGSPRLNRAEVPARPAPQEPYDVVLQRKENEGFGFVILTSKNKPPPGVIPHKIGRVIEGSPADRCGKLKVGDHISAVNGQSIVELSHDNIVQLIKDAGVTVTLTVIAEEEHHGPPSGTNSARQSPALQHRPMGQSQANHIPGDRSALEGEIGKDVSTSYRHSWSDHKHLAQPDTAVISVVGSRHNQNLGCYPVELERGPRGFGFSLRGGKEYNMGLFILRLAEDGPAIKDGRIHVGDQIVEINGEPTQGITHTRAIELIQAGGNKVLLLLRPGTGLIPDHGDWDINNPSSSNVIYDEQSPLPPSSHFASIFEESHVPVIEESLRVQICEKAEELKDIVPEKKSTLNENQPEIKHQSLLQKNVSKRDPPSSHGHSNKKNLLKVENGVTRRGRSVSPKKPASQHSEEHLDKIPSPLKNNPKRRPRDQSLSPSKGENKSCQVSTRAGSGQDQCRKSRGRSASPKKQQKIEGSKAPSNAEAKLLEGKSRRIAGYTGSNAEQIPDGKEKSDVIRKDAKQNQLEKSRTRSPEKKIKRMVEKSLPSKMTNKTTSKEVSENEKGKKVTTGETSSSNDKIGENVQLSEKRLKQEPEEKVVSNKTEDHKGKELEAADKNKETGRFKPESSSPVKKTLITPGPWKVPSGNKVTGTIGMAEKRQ
B3: Transmembrane gamma-carboxyglutamic acid protein 4 (Homo sapiens), Q9BZD6 (parent)
chain: B1 partner

In one assay the parent is B1. Particulars: with tmg4_human PRRG4, Q9BZD6.
In the case of W199A;P202A, the “effect of a mutation on the interaction” value was “disrupting interaction strength”.

For S127A, the “effect of a mutation on the interaction” value is on record as “with no effect”.

In a further assay the parent is B2. Particulars: with magi3_human MAGI3, Q5TCQ9.
Regarding MFTLLVLLSQLPTVTLGFPHCARGPKASKHAGEEVFTSKEEANFFIHRRLLYNRFDLELFTPGNLERECNEELCNYEEAREIFVDEDKTIAFWQEYSAKGPTTKSDGNREKIDVMGLLTGLIAAGVFLVIFGLLGYYLCITKCNRLQHPCSSAVYERGRHTPSIIFRRPEEAALSPLPPSVEDAGLPSAEQAVALTRKHSVSPPPPYPGHTKGFRVFKKSMSLPSH [Y189A], the “effect of a mutation on the interaction” value is given as “disrupting interaction strength”.

As to MFTLLVLLSQLPTVTLGFPHCARGPKASKHAGEEVFTSKEEANFFIHRRLLYNRFDLELFTPGNLERECNEELCNYEEAREIFVDEDKTIAFWQEYSAKGPTTKSDGNREKIDVMGLLTGLIAAGVFLVIFGLLGYYLCITKCNRLQHPCSSAVYERGRHTPSIIFRRPEEAALSPLPPSVEDAGLPSYEQAVALTRKHSVSPPPPAPGHTKGFRVFKKSMSLPSH [Y207A], the “effect of a mutation on the interaction” value was “with no effect”.

Another assay covers variants of B3. Particulars: with Magi1, Q6RHR9-1.
Magi1, Q6RHR9-1, sequence (Q6RHR9 whole entry): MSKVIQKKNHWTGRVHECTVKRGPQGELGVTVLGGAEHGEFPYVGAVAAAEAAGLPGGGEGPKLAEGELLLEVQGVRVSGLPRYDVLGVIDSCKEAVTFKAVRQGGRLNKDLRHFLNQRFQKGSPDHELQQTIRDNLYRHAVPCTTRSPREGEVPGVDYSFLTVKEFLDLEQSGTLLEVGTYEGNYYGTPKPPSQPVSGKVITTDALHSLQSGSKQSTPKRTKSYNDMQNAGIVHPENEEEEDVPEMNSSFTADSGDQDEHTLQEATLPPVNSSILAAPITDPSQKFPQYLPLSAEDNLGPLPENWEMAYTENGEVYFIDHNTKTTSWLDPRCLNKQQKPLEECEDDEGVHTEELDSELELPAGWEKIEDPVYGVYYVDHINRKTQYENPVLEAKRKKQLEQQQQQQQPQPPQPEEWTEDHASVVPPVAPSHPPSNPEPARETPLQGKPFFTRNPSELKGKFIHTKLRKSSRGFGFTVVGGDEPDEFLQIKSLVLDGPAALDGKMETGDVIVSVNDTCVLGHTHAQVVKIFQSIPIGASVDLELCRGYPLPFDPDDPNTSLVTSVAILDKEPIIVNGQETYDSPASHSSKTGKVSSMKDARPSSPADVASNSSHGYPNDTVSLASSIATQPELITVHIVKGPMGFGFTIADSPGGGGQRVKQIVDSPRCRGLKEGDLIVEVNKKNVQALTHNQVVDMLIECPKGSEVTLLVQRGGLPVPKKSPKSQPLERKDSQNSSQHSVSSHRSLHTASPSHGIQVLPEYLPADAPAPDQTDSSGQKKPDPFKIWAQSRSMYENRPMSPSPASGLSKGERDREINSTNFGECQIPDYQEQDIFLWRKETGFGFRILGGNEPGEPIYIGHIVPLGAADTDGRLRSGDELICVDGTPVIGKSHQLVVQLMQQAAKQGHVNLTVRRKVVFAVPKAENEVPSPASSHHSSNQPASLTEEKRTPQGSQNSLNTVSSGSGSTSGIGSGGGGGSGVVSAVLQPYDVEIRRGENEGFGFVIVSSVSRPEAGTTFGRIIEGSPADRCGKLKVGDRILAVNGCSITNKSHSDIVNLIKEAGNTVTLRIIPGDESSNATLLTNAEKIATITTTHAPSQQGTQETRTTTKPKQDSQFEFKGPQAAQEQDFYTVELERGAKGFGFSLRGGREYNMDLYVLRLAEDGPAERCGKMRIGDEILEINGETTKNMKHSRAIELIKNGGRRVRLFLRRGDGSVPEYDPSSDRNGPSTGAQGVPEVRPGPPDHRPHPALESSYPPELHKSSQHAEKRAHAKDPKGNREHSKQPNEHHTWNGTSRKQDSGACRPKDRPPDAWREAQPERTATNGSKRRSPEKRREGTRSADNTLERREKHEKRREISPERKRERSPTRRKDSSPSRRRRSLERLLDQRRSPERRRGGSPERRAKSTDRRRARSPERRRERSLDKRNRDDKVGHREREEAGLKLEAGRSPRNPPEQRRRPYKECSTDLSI
In the case of MFTLLVLLSQLPTVTLGFPHCARGPKASKHAGEEVFTSKEEANFFIHRRLLYNRFDLELFTPGNLERECNEELCNYEEAREIFVDEDKTIAFWQEYSAKGPTTKSDGNREKIDVMGLLTGLIAAGVFLVIFGLLGYYLCITKCNRLQHPCSSAVYERGRHTPSIIFRRPEEAALSPLPPSVEDAGLPSAEQAVALTRKHSVSPPPPYPGHTKGFRVFKKSMSLPSH [Y189A], the “effect of a mutation on the interaction” value was “disrupting interaction strength”.

For MFTLLVLLSQLPTVTLGFPHCARGPKASKHAGEEVFTSKEEANFFIHRRLLYNRFDLELFTPGNLERECNEELCNYEEAREIFVDEDKTIAFWQEYSAKGPTTKSDGNREKIDVMGLLTGLIAAGVFLVIFGLLGYYLCITKCNRLQHPCSSAVYERGRHTPSIIFRRPEEAALSPLPPSVEDAGLPSYEQAVALTRKHSVSPPPPAPGHTKGFRVFKKSMSLPSH [Y207A], the “effect of a mutation on the interaction” value was “decreasing interaction strength”.

Variants of B3 are the subject of a further assay. Conditions: with wwtr1_human WWTR1, Q9GZV5.
wwtr1_human WWTR1, Q9GZV5, sequence (Q9GZV5 whole entry): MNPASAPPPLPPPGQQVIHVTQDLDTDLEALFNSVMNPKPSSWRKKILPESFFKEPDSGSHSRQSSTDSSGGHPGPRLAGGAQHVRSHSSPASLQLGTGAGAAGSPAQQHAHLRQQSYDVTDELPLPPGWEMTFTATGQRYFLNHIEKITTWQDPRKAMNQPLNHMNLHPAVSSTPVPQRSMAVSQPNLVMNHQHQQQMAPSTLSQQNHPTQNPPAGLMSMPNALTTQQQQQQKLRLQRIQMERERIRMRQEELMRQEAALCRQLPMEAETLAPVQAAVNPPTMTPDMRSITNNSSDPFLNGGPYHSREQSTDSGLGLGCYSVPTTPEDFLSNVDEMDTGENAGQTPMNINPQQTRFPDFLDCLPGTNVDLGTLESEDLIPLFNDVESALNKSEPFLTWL
As to MFTLLVLLSQLPTVTLGFPHCARGPKASKHAGEEVFTSKEEANFFIHRRLLYNRFDLELFTPGNLERECNEELCNYEEAREIFVDEDKTIAFWQEYSAKGPTTKSDGNREKIDVMGLLTGLIAAGVFLVIFGLLGYYLCITKCNRLQHPCSSAVYERGRHTPSIIFRRPEEAALSPLPPSVEDAGLPSAEQAVALTRKHSVSPPPPYPGHTKGFRVFKKSMSLPSH [Y189A], the “effect of a mutation on the interaction” value is recorded as “disrupting interaction strength”.

For the variant MFTLLVLLSQLPTVTLGFPHCARGPKASKHAGEEVFTSKEEANFFIHRRLLYNRFDLELFTPGNLERECNEELCNYEEAREIFVDEDKTIAFWQEYSAKGPTTKSDGNREKIDVMGLLTGLIAAGVFLVIFGLLGYYLCITKCNRLQHPCSSAVYERGRHTPSIIFRRPEEAALSPLPPSVEDAGLPSYEQAVALTRKHSVSPPPPAPGHTKGFRVFKKSMSLPSH [Y207A], the “effect of a mutation on the interaction” value is on record as “with no effect”.

The variants in a further assay derive from B3. Conditions: with YAP1, P46937-3.
For MFTLLVLLSQLPTVTLGFPHCARGPKASKHAGEEVFTSKEEANFFIHRRLLYNRFDLELFTPGNLERECNEELCNYEEAREIFVDEDKTIAFWQEYSAKGPTTKSDGNREKIDVMGLLTGLIAAGVFLVIFGLLGYYLCITKCNRLQHPCSSAVYERGRHTPSIIFRRPEEAALSPLPPSVEDAGLPSAEQAVALTRKHSVSPPPPYPGHTKGFRVFKKSMSLPSH [Y189A], the “effect of a mutation on the interaction” value is reported as “disrupting interaction strength”.

On to MFTLLVLLSQLPTVTLGFPHCARGPKASKHAGEEVFTSKEEANFFIHRRLLYNRFDLELFTPGNLERECNEELCNYEEAREIFVDEDKTIAFWQEYSAKGPTTKSDGNREKIDVMGLLTGLIAAGVFLVIFGLLGYYLCITKCNRLQHPCSSAVYERGRHTPSIIFRRPEEAALSPLPPSVEDAGLPSYEQAVALTRKHSVSPPPPAPGHTKGFRVFKKSMSLPSH [Y207A], for which the “effect of a mutation on the interaction” value is “with no effect”.

The next assay covers variants of B3. Particulars: with ned4l_human NEDD4L.
As to MFTLLVLLSQLPTVTLGFPHCARGPKASKHAGEEVFTSKEEANFFIHRRLLYNRFDLELFTPGNLERECNEELCNYEEAREIFVDEDKTIAFWQEYSAKGPTTKSDGNREKIDVMGLLTGLIAAGVFLVIFGLLGYYLCITKCNRLQHPCSSAVYERGRHTPSIIFRRPEEAALSPLPPSVEDAGLPSAEQAVALTRKHSVSPPPPYPGHTKGFRVFKKSMSLPSH [Y189A], the “effect of a mutation on the interaction” value is given as “disrupting interaction strength”.

MFTLLVLLSQLPTVTLGFPHCARGPKASKHAGEEVFTSKEEANFFIHRRLLYNRFDLELFTPGNLERECNEELCNYEEAREIFVDEDKTIAFWQEYSAKGPTTKSDGNREKIDVMGLLTGLIAAGVFLVIFGLLGYYLCITKCNRLQHPCSSAVYERGRHTPSIIFRRPEEAALSPLPPSVEDAGLPSYEQAVALTRKHSVSPPPPAPGHTKGFRVFKKSMSLPSH [Y207A]: the “effect of a mutation on the interaction” value is reported as “with no effect”.

The next assay covers variants of B3. Conditions: with nedd4_human NEDD4, P46934.
nedd4_human NEDD4, P46934, sequence (P46934 whole entry): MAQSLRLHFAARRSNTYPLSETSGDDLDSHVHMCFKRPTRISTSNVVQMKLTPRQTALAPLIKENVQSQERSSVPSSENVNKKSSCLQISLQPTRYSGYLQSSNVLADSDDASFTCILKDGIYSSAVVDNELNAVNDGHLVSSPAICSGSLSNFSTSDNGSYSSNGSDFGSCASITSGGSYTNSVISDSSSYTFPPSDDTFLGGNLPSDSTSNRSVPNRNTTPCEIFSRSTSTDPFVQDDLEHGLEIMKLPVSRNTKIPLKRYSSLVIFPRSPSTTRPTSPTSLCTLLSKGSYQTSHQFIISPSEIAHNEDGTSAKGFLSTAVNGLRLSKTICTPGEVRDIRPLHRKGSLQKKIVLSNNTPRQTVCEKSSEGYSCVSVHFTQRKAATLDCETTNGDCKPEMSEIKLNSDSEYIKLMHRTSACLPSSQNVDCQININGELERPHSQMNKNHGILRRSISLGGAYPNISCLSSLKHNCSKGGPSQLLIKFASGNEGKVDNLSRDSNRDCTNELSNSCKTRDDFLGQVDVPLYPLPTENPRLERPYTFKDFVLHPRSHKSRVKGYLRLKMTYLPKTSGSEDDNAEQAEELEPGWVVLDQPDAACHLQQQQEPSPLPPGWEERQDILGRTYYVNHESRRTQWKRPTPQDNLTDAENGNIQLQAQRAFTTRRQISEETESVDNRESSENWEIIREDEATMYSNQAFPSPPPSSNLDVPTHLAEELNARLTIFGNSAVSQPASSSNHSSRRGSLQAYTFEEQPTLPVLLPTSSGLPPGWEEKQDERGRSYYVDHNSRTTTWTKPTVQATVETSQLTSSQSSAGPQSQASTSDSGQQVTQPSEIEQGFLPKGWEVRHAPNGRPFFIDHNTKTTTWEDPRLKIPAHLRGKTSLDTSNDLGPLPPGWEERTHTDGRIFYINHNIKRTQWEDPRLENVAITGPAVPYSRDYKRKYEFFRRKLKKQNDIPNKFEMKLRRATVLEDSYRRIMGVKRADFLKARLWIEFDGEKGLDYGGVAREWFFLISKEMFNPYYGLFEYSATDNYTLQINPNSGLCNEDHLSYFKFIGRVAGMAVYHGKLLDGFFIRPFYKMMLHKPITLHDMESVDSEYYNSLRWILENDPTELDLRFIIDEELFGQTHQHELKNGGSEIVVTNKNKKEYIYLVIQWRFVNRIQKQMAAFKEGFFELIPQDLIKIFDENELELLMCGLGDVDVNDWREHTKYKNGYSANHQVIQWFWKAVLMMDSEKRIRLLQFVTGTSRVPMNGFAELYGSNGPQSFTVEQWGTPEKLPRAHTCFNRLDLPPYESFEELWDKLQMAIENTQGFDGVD
With MFTLLVLLSQLPTVTLGFPHCARGPKASKHAGEEVFTSKEEANFFIHRRLLYNRFDLELFTPGNLERECNEELCNYEEAREIFVDEDKTIAFWQEYSAKGPTTKSDGNREKIDVMGLLTGLIAAGVFLVIFGLLGYYLCITKCNRLQHPCSSAVYERGRHTPSIIFRRPEEAALSPLPPSVEDAGLPSAEQAVALTRKHSVSPPPPYPGHTKGFRVFKKSMSLPSH [Y189A], the “effect of a mutation on the interaction” value was “disrupting interaction strength”.

Regarding MFTLLVLLSQLPTVTLGFPHCARGPKASKHAGEEVFTSKEEANFFIHRRLLYNRFDLELFTPGNLERECNEELCNYEEAREIFVDEDKTIAFWQEYSAKGPTTKSDGNREKIDVMGLLTGLIAAGVFLVIFGLLGYYLCITKCNRLQHPCSSAVYERGRHTPSIIFRRPEEAALSPLPPSVEDAGLPSYEQAVALTRKHSVSPPPPAPGHTKGFRVFKKSMSLPSH [Y207A], the “effect of a mutation on the interaction” value is “with no effect”.
